# According to article PMC9638026, “DNA double-strand break-derived RNA drives TIRR/53BP1 complex dissociation”:
# B1: dsRNA (dsRNA)
# RNA 1: GGACAAGAUGCCUUAUGUGG
# RNA 2: CCACAUAAGGCAUCUUGUCC
# Key:
# TIRR (6-211)-His = TIRR (6-211)-His (UniProt Q9BRJ7 6-211); assay: SPR; SPR: 20 mM HEPES pH 6, 300 mM NaCl, 0.05% P20, 25 C; EMSA: 50 mM HEPES, 50 mM NaCl, 5% glycerol, 20 mM MgCl2, 0.01% Tween 20, 37 C 15 min, 10 nM probe; conditions: protein: recombinant, tags: His
# 53BP1-Tudor = 53BP1-Tudor (Homo sapiens, UniProt Q12888 1484-1603); assay: EMSA; 20 mM Mg2+; SPR: 20 mM HEPES pH 6, 300 mM NaCl, 0.05% P20, 25 C; EMSA: 50 mM HEPES, 50 mM NaCl, 5% glycerol, 20 mM MgCl2, 0.01% Tween 20, 37 C 15 min, 10 nM probe; conditions: protein: commercial; label: 32P 5' in EMSA; hairpin
# Chain of 53BP1-Tudor (Q12888 1484-1603): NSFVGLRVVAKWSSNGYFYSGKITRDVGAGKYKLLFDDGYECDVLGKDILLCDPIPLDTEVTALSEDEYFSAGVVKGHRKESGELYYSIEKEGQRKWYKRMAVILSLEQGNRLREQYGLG
# Chain of TIRR (6-211)-His (Q9BRJ7 6-211): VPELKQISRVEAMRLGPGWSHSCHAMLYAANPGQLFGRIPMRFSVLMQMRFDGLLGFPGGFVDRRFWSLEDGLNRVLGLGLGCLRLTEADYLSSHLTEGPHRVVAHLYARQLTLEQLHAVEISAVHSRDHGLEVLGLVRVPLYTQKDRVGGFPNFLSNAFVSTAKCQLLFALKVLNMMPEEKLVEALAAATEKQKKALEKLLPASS
binder,measurement,setting,value
GGACAAGAUGCCUUAUGUGGACUUCACCACAUAAGGCAUCUUGUCC (structured_RNA) [RNA hairpin],Kd,TIRR (6-211)-His; hairpin,~100 µM
CGCUCCCAAAAAAAAAAACCGAGCG (structured_RNA) [RNA beacon],binding result,53BP1-Tudor,no binding
same,Kd,"TIRR (6-211)-His; label: 32P 5' in EMSA, hairpin",~100 µM
B1,Kd,TIRR (6-211)-His; blunt,~200 µM
